Drawing on article PMC7714695, this text covers fold difference (Ub/unmod) by AlphaLisa for one substance.

This assay concerns the target recombinant H2AK119Ub mono-nucleosomes (UniProt P04908). Description: AlphaScreen or HTRF; Alphalisa: GST-SSX or GST-SSXdel7aa titrated against 10nM biotinylated nucleosomes; EC50 by nonlinear regression.

GST-SSX1 (78aa), sequence (Q16384 111-188): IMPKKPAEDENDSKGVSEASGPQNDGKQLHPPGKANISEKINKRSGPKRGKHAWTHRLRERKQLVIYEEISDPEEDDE

Turning to “GST-SSX1 (78aa) (from UniProt Q16384 111-188) (domain or fragment)”, the fold difference (Ub/unmod) by AlphaLisa was found to be 4.8 fold.
